Source: patent publication US20160264663A1 (published 2016)
Like-named read-outs stand apart in the source and are kept apart here.

What was measured:
human podocalyxin [1] = target: T1, human podocalyxin (human); experiment: flow cytometry, isotype control, 293 HEK cells
T1 chain: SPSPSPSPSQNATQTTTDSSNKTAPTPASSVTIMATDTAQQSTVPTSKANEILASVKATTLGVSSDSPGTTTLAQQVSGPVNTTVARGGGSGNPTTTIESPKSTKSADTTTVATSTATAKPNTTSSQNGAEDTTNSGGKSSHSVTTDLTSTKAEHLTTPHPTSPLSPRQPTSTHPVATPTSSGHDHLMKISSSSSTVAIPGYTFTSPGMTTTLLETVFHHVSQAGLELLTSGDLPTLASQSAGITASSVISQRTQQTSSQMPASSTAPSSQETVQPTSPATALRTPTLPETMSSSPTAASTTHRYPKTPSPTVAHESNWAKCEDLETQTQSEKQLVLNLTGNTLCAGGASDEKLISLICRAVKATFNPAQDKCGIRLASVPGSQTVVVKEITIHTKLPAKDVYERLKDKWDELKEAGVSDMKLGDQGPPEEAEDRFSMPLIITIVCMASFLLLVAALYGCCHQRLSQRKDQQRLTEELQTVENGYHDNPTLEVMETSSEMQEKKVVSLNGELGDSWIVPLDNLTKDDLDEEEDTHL

human podocalyxin [2] = target: T1, human podocalyxin; experiment: flow cytometry, isotype control, SKOV3 cells
human podocalyxin [3] = target: T1, human podocalyxin; experiment: flow cytometry, isotype control, A172 cells
human podocalyxin [4] = target: T1, human podocalyxin; experiment: flow cytometry, isotype control, OVCAR3 cells
human podocalyxin [5] = target: T1, human podocalyxin; experiment: flow cytometry, isotype control, CaOV3 cells
human podocalyxin [6] = target: T1, human podocalyxin; experiment: flow cytometry, isotype control, T47-D cells
human podocalyxin [7] = target: T1, human podocalyxin; experiment: flow cytometry, isotype control, HUVEC cells
human podocalyxin [8] = target: T1, human podocalyxin; experiment: flow cytometry, isotype control, OVCAR10 cells
human podocalyxin [9] = target: T1, human podocalyxin; experiment: flow cytometry, isotype control, MDA-MB-231 cells
human podocalyxin [10] = target: T1, human podocalyxin; experiment: flow cytometry, isotype control, MCF7 cells
human podocalyxin [11] = target: T1, human podocalyxin; experiment: flow cytometry, supernatant 1:125, hPodo/MDA-MB-231 transient transfectants
human podocalyxin [12] = target: T1, human podocalyxin; experiment: kinetic exclusion assay (KinExA 3200), MDA-MB-231 cells
human podocalyxin [13] = target: T1, human podocalyxin; experiment: flow cytometry, supernatant 1:5, hPodo/MDA-MB-231 transient transfectants
human podocalyxin [14] = target: T1, human podocalyxin; experiment: flow cytometry, supernatant 2:15 (so in the source), MDA-MB-231 cells
human podocalyxin [15] = target: T1, human podocalyxin; experiment: flow cytometry titration on 293-6E cells (endogenous podocalyxin), 24 hours at 4 C
human podocalyxin [16] = target: T1, human podocalyxin; experiment: flow cytometry, supernatant neat, MDA-MB-231 cells
human podocalyxin [17] = target: T1, human podocalyxin; experiment: flow cytometry titration on 293-6E cells (endogenous podocalyxin), 48 hours at 4 C
human podocalyxin [18] = target: T1, human podocalyxin; experiment: flow cytometry, supernatant 1:125, MDA-MB-231 cells
human podocalyxin [19] = target: T1, human podocalyxin; experiment: flow cytometry, supernatant neat, hPodo/MDA-MB-231 transient transfectants
human podocalyxin [20] = target: T1, human podocalyxin; experiment: flow cytometry, supernatant 2:15 (so in the source), hPodo/MDA-MB-231 transient transfectants
human podocalyxin [21] = target: T1, human podocalyxin; experiment: flow cytometry, supernatant 1:5, MDA-MB-231 cells
[22] = target: human podocalyxin (human); experiment: FACS, hPodo/MDA cells (MDA-MB-231 transfected with human podocalyxin cDNA)
[23] = target: human podocalyxin (human); experiment: flow cytometry, 5 ug/mL antibody, OVCAR3 cells
[24] = target: human podocalyxin (human); experiment: flow cytometry, 5 ug/mL antibody, HUVEC cells
[25] = target: human podocalyxin (human); experiment: flow cytometry, supernatant 1:5, hPodo/MDA-MB-231 transient transfectants; remark: listed apart in the source
[26] = target: human podocalyxin (human); experiment: flow cytometry, 5 ug/mL antibody, MCF7 cells
[27] = target: human podocalyxin (human); experiment: flow cytometry, OVCAR10 cells
[28] = target: human podocalyxin (human); experiment: flow cytometry, MCF7 cells
[29] = target: human podocalyxin (human); experiment: flow cytometry, supernatant neat, hPodo/MDA-MB-231 transient transfectants; remark: listed apart in the source
[30] = target: human podocalyxin (human); experiment: flow cytometry, supernatant 2:15 (so in the source), MDA-MB-231 cells; remark: listed apart in the source
[31] = target: human podocalyxin (human); experiment: flow cytometry, supernatant 1:125, MDA-MB-231 cells; remark: listed apart in the source
[32] = target: human podocalyxin (human); experiment: flow cytometry, 5 ug/mL antibody, OVCAR10 cells
[33] = target: human podocalyxin (human); experiment: flow cytometry, supernatant neat, MDA-MB-231 cells; remark: listed apart in the source
[34] = target: human podocalyxin (human); experiment: flow cytometry, supernatant 1:125, hPodo/MDA-MB-231 transient transfectants; remark: listed apart in the source
[35] = target: human podocalyxin (human); experiment: kinetic exclusion assay (KinExA 3200), MDA-MB-231 cells; remark: listed apart in the source
[36] = target: human podocalyxin (human); experiment: flow cytometry, T47-D cells
[37] = target: human podocalyxin (human); experiment: flow cytometry, HUVEC cells
[38] = target: human podocalyxin (human); experiment: flow cytometry, CaOV3 cells
[39] = target: human podocalyxin (human); experiment: flow cytometry, A172 cells
[40] = target: human podocalyxin (human); experiment: flow cytometry, 5 ug/mL antibody, T47-D cells
[41] = target: human podocalyxin (human); experiment: flow cytometry titration on 293-6E cells (endogenous podocalyxin), 24 hours at 4 C; remark: listed apart in the source
[42] = target: human podocalyxin (human); experiment: flow cytometry, supernatant 1:5, MDA-MB-231 cells; remark: listed apart in the source
[43] = target: human podocalyxin (human); experiment: flow cytometry, MDA-MB-231 cells
[44] = target: human podocalyxin (human); experiment: flow cytometry, 293 HEK cells
[45] = target: human podocalyxin (human); experiment: kinetic exclusion assay (KinExA 3200), A172 cells
[46] = target: human podocalyxin (human); experiment: flow cytometry, SKOV3 cells
[47] = target: human podocalyxin (human); experiment: flow cytometry, OVCAR3 cells
[48] = target: human podocalyxin (human); experiment: flow cytometry, 5 ug/mL antibody, A172 cells
[49] = target: human podocalyxin (human); experiment: flow cytometry, 5 ug/mL antibody, MDA-MB-231 cells
[50] = target: human podocalyxin (human); experiment: flow cytometry, supernatant 2:15 (so in the source), hPodo/MDA-MB-231 transient transfectants; remark: listed apart in the source
[51] = target: human podocalyxin (human); experiment: FACS on MDA-MB-231 cells; biotinylated antibody 5 ug/mL, no competitor (FACS Buffer row)
[52] = target: human podocalyxin (human); experiment: flow cytometry titration on 293-6E cells (endogenous podocalyxin), 48 hours at 4 C; remark: listed apart in the source
[53] = target: human podocalyxin (human); experiment: flow cytometry, 5 ug/mL antibody, 293 cells
[54] = target: human podocalyxin (human); experiment: flow cytometry, 5 ug/mL antibody, CaOV3 cells

## MsIgG2a (antibody)
Human podocalyxin [1]
  Live cell GeoMean FL (geometric mean fluorescence units): 556
Human podocalyxin [2]
  Live cell GeoMean FL (geometric mean fluorescence units): 485
Human podocalyxin [3]
  Live cell GeoMean FL (geometric mean fluorescence units): 797
Human podocalyxin [4]
  Live cell GeoMean FL (geometric mean fluorescence units): 708
Human podocalyxin [5]
  Live cell GeoMean FL (geometric mean fluorescence units): 892
Human podocalyxin [6]
  Live cell GeoMean FL (geometric mean fluorescence units): 787
Human podocalyxin [7]
  Live cell GeoMean FL (geometric mean fluorescence units): 484
Human podocalyxin [8]
  Live cell GeoMean FL (geometric mean fluorescence units): 618
Human podocalyxin [9]
  Live cell GeoMean FL (geometric mean fluorescence units): 478
Human podocalyxin [10]
  Live cell GeoMean FL (geometric mean fluorescence units): 1130

B1: huPodo 83 1:1 (humanized anti-podocalyxin antibody 83, version 1) (antibody, V domains shown)
VH: EVQLVESGGGLVQPGGSLRLSCAASGIDLSSYAMGWVRQAPGKGLEWVSFIYASGSIFYASWAKGRFTISRDNSKNTLYLQMNSLRAEDTAVYYCARAGYYFGGNYDLNLWGQGTLVTVSS
VL: DIQMTQSPSSLSASVGDRVTITCQASQSISNYLAWYQQKPGKVPKLLIYRASTLASGVPSRFSGSGSGTDFTLTISSLQPEDVATYYCQQGYVSNNLDNIFGGGTEVVVK
Human podocalyxin [11]
  FACS signal (name not given): 61600
Human podocalyxin [12]
  Kd: 0.26 nM
Human podocalyxin [13]
  FACS signal (name not given): 128000
Human podocalyxin [14]
  FACS signal (name not given): 91500
Human podocalyxin [15]
  EC50: 0.0331 µg/mL
Human podocalyxin [16]
  FACS signal (name not given): 125000
Human podocalyxin [17]
  IC50: 0.0355 µg/mL
Human podocalyxin [18]
  FACS signal (name not given): 39400
Human podocalyxin [19]
  FACS signal (name not given): 124000
Human podocalyxin [20]
  FACS signal (name not given): 157000
Human podocalyxin [21]
  FACS signal (name not given): 112000

B2: Rb/Hu Podo83 (Podo83 rabbit VH and VL, human IgG1 chimera) (antibody, V domains shown)
VH: CQSLAESGGRLVTPGTPLTLTCTASGIDLSSYAMGWVRQAPGKGLEYIGFIYASGSIFYASWAKGRFTISKTSSTTVDLKMTSLTTEDTATYFCARAGYYFGGNYDLNLWGQGTLVTVSS
VL: DIVLTQTPASVEVAVGGTVTIKCQASQSISNYLAWYQRKPGQPPRLLIYRASTLASGVSSRFKGSGSGTQFTLTISGVECADAATYYCQQGYVSNNLDNIFGGGTEVVVK
modifications: human IgG1/kappa constant regions
[22]
  FACS signal (name not given): 178000
[23]
  Live cell GeoMean FL (geometric mean fluorescence units): 16500
[24]
  Live cell GeoMean FL (geometric mean fluorescence units): 44600
[25]
  FACS signal (name not given): 99300
[26]
  Live cell GeoMean FL (geometric mean fluorescence units): 60800
[27]
  Live cell GeoMean FL (geometric mean fluorescence units): 1530
[28]
  Live cell GeoMean FL (geometric mean fluorescence units): 28400
[29]
  FACS signal (name not given): 79000
[30]
  FACS signal (name not given): 102000
[31]
  FACS signal (name not given): 50600
[32]
  Live cell GeoMean FL (geometric mean fluorescence units): 2820
[33]
  FACS signal (name not given): 143000
[34]
  FACS signal (name not given): 58500
[35]
  Kd: 0.0456 nM
[36]
  Live cell GeoMean FL (geometric mean fluorescence units): 1130
[37]
  Live cell GeoMean FL (geometric mean fluorescence units): 24500
[38]
  Live cell GeoMean FL (geometric mean fluorescence units): 23400
[39]
  Live cell GeoMean FL (geometric mean fluorescence units): 224000
[40]
  Live cell GeoMean FL (geometric mean fluorescence units): 1500
[41]
  EC50: 0.0295 µg/mL
[42]
  FACS signal (name not given): 121000
[43]
  Live cell GeoMean FL (geometric mean fluorescence units): 88900
[44]
  Live cell GeoMean FL (geometric mean fluorescence units): 28200
[45]
  Kd: 0.103 nM
[46]
  Live cell GeoMean FL (geometric mean fluorescence units): 59800
[47]
  Live cell GeoMean FL (geometric mean fluorescence units): 28600
[48]
  Live cell GeoMean FL (geometric mean fluorescence units): 170000
[49]
  Live cell GeoMean FL (geometric mean fluorescence units): 91900
[50]
  FACS signal (name not given): 155000
[51]
  FACS signal (name not given): 139000
[52]
  EC50 (half-maximal binding): 0.0305 µg/mL
[53]
  Live cell GeoMean FL (geometric mean fluorescence units): 28200
[54]
  Live cell GeoMean FL (geometric mean fluorescence units): 48800
